We go through 3 substances from patent publication US6998240B2, “Screen for selective inhibitors or activators of Smad protein function” (Wisconsin Alumni Research Foundation, priority 2001, dated 2006).

Assay [1] addresses T1, Phosphorylated Smad2/4 Complex (Homo sapiens, UniProt Q15796). Nature of the assay: microplate solid-phase assay; Smad2P4 0.50 ug/well; biotinylated GST-CBP 1:1000.
For assay [2], the target named is T1, Phosphorylated Smad2/4 Complex. Nature of the assay: microplate solid-phase assay; Smad2P4 0.25 ug/well; biotinylated GST-CBP 1:2000, duplicate well.
For assay [3] the target is unchanged. Nature of the assay: microplate solid-phase assay; Smad2P4 0.125 ug/well; biotinylated GST-CBP 1:2000.
The target is the same in assay [4]. Nature of the assay: microplate solid-phase assay; Smad2P4 0.125 ug/well; biotinylated GST-CBP 1:500.
Assay [5] concerns the target unphosphorylated Smad2 (His-tagged, full length) (UniProt Q15796). Nature of the assay: microplate solid-phase assay; Smad2 0.25 ug/well; biotinylated GST-CBP 1:1000, duplicate well.
Assay [6] concerns the target T1, Phosphorylated Smad2/4 Complex. Nature of the assay: microplate solid-phase assay; Smad2P4 0.125 ug/well; biotinylated GST-CBP 1:2000, duplicate well.
In assay [7] the target is unphosphorylated Smad2 (His-tagged, full length) (UniProt Q15796). Nature of the assay: microplate solid-phase assay; Smad2 0.25 ug/well; biotinylated GST-CBP 1:2000.
Assay [8] has the same target. Nature of the assay: microplate solid-phase assay; Smad2 0.50 ug/well; biotinylated GST-CBP 1:500.
Assay [9] shares this target. Nature of the assay: microplate solid-phase assay; Smad2 0.25 ug/well; biotinylated GST-CBP 1:2000, duplicate well.
The target in assay [10] is T1, Phosphorylated Smad2/4 Complex. Nature of the assay: microplate solid-phase assay; Smad2P4 0.25 ug/well; biotinylated GST-CBP 1:2000.
The target of assay [11] is unphosphorylated Smad2 (His-tagged, full length) (UniProt Q15796). Nature of the assay: microplate solid-phase assay; Smad2 0.50 ug/well; biotinylated GST-CBP 1:2000, duplicate well.
The target of assay [12] is T1, Phosphorylated Smad2/4 Complex. Nature of the assay: microplate solid-phase assay; Smad2P4 0.125 ug/well; biotinylated GST-CBP 1:500, duplicate well.
Assay [13] shares this target. Nature of the assay: microplate solid-phase assay; Smad2P4 0.50 ug/well; biotinylated GST-CBP 1:500.
Assay [14] has the same target. Nature of the assay: microplate solid-phase assay; Smad2P4 0.50 ug/well; biotinylated GST-CBP 1:500, duplicate well.
Assay [15] shares this target. Nature of the assay: microplate solid-phase assay, biotinylated GST-CBP, streptavidin-AP.
Assay [16] shares this target. Nature of the assay: microplate solid-phase assay; Smad2P4 0.125 ug/well; biotinylated GST-CBP 1:1000, duplicate well.
Assay [17] has the same target. Nature of the assay: microplate solid-phase assay; Smad2P4 0.50 ug/well; biotinylated GST-CBP 1:2000.
Assay [18] deals with unphosphorylated Smad2 (His-tagged, full length) (UniProt Q15796). Nature of the assay: microplate solid-phase assay; Smad2 0.25 ug/well; biotinylated GST-CBP 1:500, duplicate well.
For assay [19] the target is unchanged. Nature of the assay: microplate solid-phase assay; Smad2 0.25 ug/well; biotinylated GST-CBP 1:500.
Assay [20] shares this target. Nature of the assay: microplate solid-phase assay; Smad2 0.50 ug/well; biotinylated GST-CBP 1:1000, duplicate well.
The target in assay [21] is T1, Phosphorylated Smad2/4 Complex. Nature of the assay: microplate solid-phase assay; Smad2P4 0.125 ug/well; biotinylated GST-CBP 1:1000.
Assay [22] has the same target. Nature of the assay: microplate solid-phase assay; Smad2P4 0.25 ug/well; biotinylated GST-CBP 1:500, duplicate well.
For assay [23], the target named is unphosphorylated Smad2 (His-tagged, full length) (UniProt Q15796). Nature of the assay: microplate solid-phase assay; Smad2 0.50 ug/well; biotinylated GST-CBP 1:500, duplicate well.
Assay [24] deals with T1, Phosphorylated Smad2/4 Complex. Nature of the assay: microplate solid-phase assay; Smad2P4 0.25 ug/well; biotinylated GST-CBP 1:500.
Assay [25] shares this target. Nature of the assay: microplate solid-phase assay; Smad2P4 0.50 ug/well; biotinylated GST-CBP 1:1000, duplicate well.
The target is the same in assay [26]. Nature of the assay: microplate solid-phase assay; Smad2P4 0.25 ug/well; biotinylated GST-CBP 1:1000.
Assay [27] deals with unphosphorylated Smad2 (His-tagged, full length) (UniProt Q15796). Nature of the assay: microplate solid-phase assay; Smad2 0.25 ug/well; biotinylated GST-CBP 1:1000.
Assay [28] shares this target. Nature of the assay: microplate solid-phase assay; Smad2 0.50 ug/well; biotinylated GST-CBP 1:1000.
The target of assay [29] is T1, Phosphorylated Smad2/4 Complex. Nature of the assay: microplate solid-phase assay; Smad2P4 0.50 ug/well; biotinylated GST-CBP 1:2000, duplicate well.
The target is the same in assay [30]. Nature of the assay: microplate solid-phase assay; Smad2P4 0.25 ug/well; biotinylated GST-CBP 1:1000, duplicate well.
The target in assay [31] is unphosphorylated Smad2 (His-tagged, full length) (UniProt Q15796). Nature of the assay: microplate solid-phase assay; Smad2 0.50 ug/well; biotinylated GST-CBP 1:2000.
The target in assay [32] is phosphorylated Smad2 (His-tagged, full length, from Sf9 cells co-infected with Alk5 T204D virus) (UniProt Q15796). Nature of the assay: HTRF, biotin-FAST binding to Smad2-P, no inhibitor. (In general: In TR-FRET formats the signal depends on donor and acceptor labels being close together.)
For assay [33] the target is unchanged. Nature of the assay: HTRF competition against 500 nM biotinylated FAST peptide.

For “biotinylated GST-CBP protein (from UniProt P08515 1-218)”, the relative light units (RLU) in assay [1] stood at 306000 RLU; in [2] it was 162000 RLU; in assay [3], 82200 RLU; in assay [4], 72000 RLU; in [5] it was 7830 RLU; in assay [6], 85100 RLU. In addition, the relative light units (RLU) in assay [7] was found to be 6600 RLU; in assay [8] it was 26600 RLU; in assay [9] it was 4340 RLU; in assay [10], 176000 RLU; in assay [11], 11000 RLU; in assay [12], 74300 RLU. Also, the relative light units (RLU) is 358000 RLU in [13]; 236000 RLU in [14]; 82300 RLU in assay [16]; 303000 RLU in assay [17]; 8900 RLU in assay [18]; 11100 RLU in assay [19]. The relative light units (RLU) in assay [20] is 23500 RLU; in assay [21], 82900 RLU; in assay [22] it was 191000 RLU; in [23] it was 26300 RLU; in assay [24], 204000 RLU; in [25] it was 323000 RLU. In addition, the relative light units (RLU) in assay [26] worked out at 181000 RLU; in assay [27] it was 6680 RLU; in assay [28], 23000 RLU; in [29] it was 285000 RLU; in assay [30], 182000 RLU; in assay [31], 11300 RLU. The fold more CBP bound than by an equivalent amount of unphosphorylated Smad in [15] was above 30 fold.

In turn, “biotinylated FAST peptide (24 mer, Smad interaction motif of human FAST) (from UniProt O75593 327-350)” returned an Average Normalized Counts in assay [32] of 1880 counts.

A word on the IC50: it is the concentration at which inhibition is half-maximal. Consider “GST-trx-FAST fusion protein (FAST SIM peptide aptamer on thioredoxin scaffold) (from UniProt O75593 327-350) (designed binder)”, for which the IC50 in assay [33] was found to be 250 nM.
